Test results: patent US20230277625A1 (SIMCHA IL 18, published 2023)

T1: Mouse IL-18BP (amino acids 31-194), biotinylated (mouse, UniProt Q9Z0M9 29-193, biotin on the AviTag (BirA ligase))
T1 construct: also called mIL-18BP
T1 sequence: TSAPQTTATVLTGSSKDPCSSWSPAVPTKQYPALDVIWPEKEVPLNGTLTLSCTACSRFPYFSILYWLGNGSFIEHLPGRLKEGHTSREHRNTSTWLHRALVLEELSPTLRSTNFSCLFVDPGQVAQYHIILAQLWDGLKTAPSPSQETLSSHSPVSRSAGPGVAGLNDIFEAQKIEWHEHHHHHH

T2: Mouse IL-18Rα ectodomain (amino acids 19-329), biotinylated (mouse, UniProt Q61098 19-329, biotin on the AviTag (BirA ligase))
T2 construct: range 19-329; Secreted from Expi293 cells (H7 signal peptide removed); also called mIL-18Rα; mIL18Ra
T2 sequence: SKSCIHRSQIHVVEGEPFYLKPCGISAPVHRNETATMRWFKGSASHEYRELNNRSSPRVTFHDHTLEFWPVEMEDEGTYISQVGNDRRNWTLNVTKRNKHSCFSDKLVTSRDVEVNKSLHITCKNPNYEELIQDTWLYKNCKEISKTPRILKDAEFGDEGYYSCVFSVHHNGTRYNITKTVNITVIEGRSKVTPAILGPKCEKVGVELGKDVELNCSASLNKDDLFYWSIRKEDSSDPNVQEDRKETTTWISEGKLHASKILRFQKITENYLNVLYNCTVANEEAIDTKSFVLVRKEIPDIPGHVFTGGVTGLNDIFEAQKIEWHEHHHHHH


How the values were obtained:
[1] = molecular target: T1, Mouse IL-18BP (amino acids 31-194), …; assay: SPR; KD ratio relative to WT IL-18; SPR; ratio normalized to WT
How it was run: (§1)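 Biotinylated IL-18Rα or IL-18BP captured on a biotin CAP chip (Rmax ~50 RU or ~10 RU respectively), with serial dilutions of IL-18 variants as analyte. Run at 25° C in HBS-P+ (10 mM HEPES pH 7.4, 150 mM NaCl, 0.005% P20); guanidine/NaOH regeneration. KD from 1:1 Langmuir fit.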

[2] = molecular target: T2, Mouse IL-18Rα ectodomain (amino acids …); assay: on-yeast binding isotherm (flow cytometry)
How it was run: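 Yeast displaying IL-18 variants were grown at 30 °C, then induced 1 day at 20 °C, with display checked by anti-myc-PE. Cells were stained on ice with biotinylated IL-18Rα (± IL-18Rβ) or biotinylated IL-18BP in PBS/0.5% BSA/2 mM EDTA. Binding was read by flow cytometry.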

[3] = molecular target: T2, Mouse IL-18Rα ectodomain (amino acids …); assay: SPR (Biacore T100), receptor captured via biotin, IL-18 as analyte
How it was run: as §1

[4] = molecular target: T1, Mouse IL-18BP (amino acids 31-194), …; assay: yeast binding isotherms and SPR; members per FIG. 11A legend
[5] = molecular target: T1, Mouse IL-18BP (amino acids 31-194), …; assay: on-yeast binding isotherms; 10 µM used for NBD; on-yeast isotherm; ratio is a bound reckoned from 10 µM put in for NBD
Protocol: (§2) Individual colonies of IL-18 yeast were grown overnight at 30° C. in SDCAA liquid media and induced in SGCAA liquid media for 1 day at 20° C. IL-18 display levels on yeast were verified by flow cytometry using an anti-cMyc tag antibody (anti-myc-PE; Cell Signaling Technologies). Receptor staining with biotinylated IL-18Rα (with or without IL-18R β) or biotinylated IL-18BP was performed in PBS supplemented with 0.5% BSA and 2 mM EDTA (PBE) on ice. All analysis was performed on a Sony SA3800 flow cytometer.

[6] = molecular target: T1, Mouse IL-18BP (amino acids 31-194), …; assay: on-yeast binding isotherms; KD ratio relative to WT IL-18; on-yeast isotherm; normalized ratio from 10 µM put in for NBD
Protocol: as §2

[7] = molecular target: T1, Mouse IL-18BP (amino acids 31-194), …; assay: SPR (Biacore T100), IL-18BP captured via biotin, IL-18 as analyte; SPR; weak binding, 3.8 µM
Protocol: (§3) Experiments were conducted using a Biacore T100 and carried out at 25° C. Biotinylated IL-18Rα or IL-18BP were immobilized onto a Biacore biotin capture chip (Series S CAP sensor chip, GE Healthcare) to yield an Rmax of ˜50 RU (IL-18Rα) or ˜10 RU (IL-18BP). Measurements were made with serial dilutions of the IL-18 variants in HEPES buffered Saline-P+buffer (10 mM HEPES pH 7.4, 150 mM NaCl, 0.005% surfactant P20). The surface was regenerated by three 60-sec injections of regeneration buffer (3/4 (v/v) 8M guanidine hydrochloride with 1/4 (v/v) 1M sodium hydroxide). Experiments were performed in multiple channels simultaneously for increased observations. All data were analyzed with the Biacore T100 evaluation software version 2.0 with a 1:1 Langmuir binding model.

[8] = molecular target: T1, Mouse IL-18BP (amino acids 31-194), …; assay: SPR; KD for IL-18BP over KD for IL-18Rα; SPR; ratio of measured KDs
Protocol: as §3

[9] = molecular target: T1, Mouse IL-18BP (amino acids 31-194), …; assay: SPR; 30 µM used for NBD; SPR; ratio is a bound reckoned from 30 µM put in for NBD
Protocol: as §3

[10] = molecular target: T1, Mouse IL-18BP (amino acids 31-194), …; assay: SPR; KD ratio relative to WT IL-18; SPR; normalized ratio from 30 µM put in for NBD
Protocol: as §3

[11] = molecular target: T1, Mouse IL-18BP (amino acids 31-194), …; assay: SPR (Biacore T100), IL-18BP captured via biotin, IL-18 as analyte; SPR; very weak binding, about 15 µM
Protocol: as §3

| Binder | Dissociation Constant Ratio normalized to WT IL-18 [1] | Kd [2] | Kd [3] | Kd [4] | KD ratio IL-18BP/IL-18Rα [5] | Dissociation Constant Ratio normalized to WT IL-18 [6] | Kd [7] | KD ratio IL-18BP/IL-18Rα [8] | KD ratio IL-18BP/IL-18Rα [9] | Dissociation Constant Ratio normalized to WT IL-18 [10] | Kd [11] |
| --- | --- | --- | --- | --- | --- | --- | --- | --- | --- | --- | --- |
| SEQ ID NO: 60 (murine DR-IL-18 variant mCS1) (ligand, Engineered variant) NFGRLHCTTAVIRNINDQVLFVDKRQPVFEDMTDIDQSASEPQTRLIIYGYADSRVRGKAVTLSVKDSKMSTLSCKNKIISFEEMDPPENIDDIQSDLIFFQKRVPGHNKMEFESSLYEGHFLACQKEDDAFKLILKKKDENGDKSVMFTLTNLHQS | 3.84e+06 | 10.7 nM | 0.54 nM | > 1000 nM | > 935 | > 4960 | 3800 nM | 7040 | – | – | – |
| SEQ ID NO: 64 (murine DR-IL-18 variant mE8) (ligand, Engineered variant) NFGRLHCTTAVIRNINDQVLFVDKRQPVFEDMTDIDQSASEPQTRLIIYVYTDGRRRGKAVTLSVKDSKMSTLSCKNKIISFEEMDPPENIDDIQSDLIFFQKKVPGHDKMEFESSLYEGHFLACQKEDDAFKLILKKKDENGDKSVMFTLTNLHQS | – | 42 nM | 1.69 nM | – | > 238 | > 1260 | – | – | > 17800 | > 9.68e+06 | – |
| SEQ ID NO: 67 (murine DR-IL-18 variant mB1) (ligand, Engineered variant) HFGRLHCTTAVIRNINDQVLFVDKRQPVFEDMTDIDQSASEPQTRLIIYGYADSDARAKAVTLSVKDSKMSTLSCKNKIISFEEMDPPENIDDIQSDLIFFQKSVPGHNKMEFESSLYEGHFLACQKEDDAFKLILKKKDENGDKSVMFTVTNLHQS | 1.15e+07 | 17.9 nM | 0.7 nM | > 1000 nM | > 559 | > 2960 | – | 21000 | – | – | 14700 nM |
